Laboratory results: patent US20220332818A1 (AstraZeneca / MedImmune, published 2022)

Biological target: T1, TIM-3 IgV domain (human) (human, UniProt Q8TDQ0 22-130)
T1 construct: also called IgV domain of TIM-3; human TIM-3 IgV
T1 sequence: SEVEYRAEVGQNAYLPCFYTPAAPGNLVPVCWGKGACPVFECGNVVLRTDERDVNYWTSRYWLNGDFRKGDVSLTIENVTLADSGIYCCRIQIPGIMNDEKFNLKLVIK
Test: co-crystal X-ray structure
Procedure: To obtain the co-crystal structure of the TIM-3 IgV domain with antigen-binding fragments (Fabs), all proteins were expressed in mammalian cells and purified to homogeneity. Purified TIM-3 IgV domain and Fabs (one at a time) were incubated at a slight excess of IgV domain, followed by size exclusion purification of the complex. Crystallization of the complexes was performed at room temperature. The X-ray diffraction data was collected at the Stanford Synchrotron Radiation Lightsource (SSRL, Menlo Park, Calif., USA). Structures of the complexes were solved by molecular replacement.

- binding result: binds
B1: Fab of anti-TIM3 antibody #62 (Fab, V domains shown)
VH: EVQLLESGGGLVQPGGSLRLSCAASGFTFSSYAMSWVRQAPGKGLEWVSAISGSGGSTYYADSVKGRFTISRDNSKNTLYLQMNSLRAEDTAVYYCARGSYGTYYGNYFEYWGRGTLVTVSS
VL: QTVLTQPPSVSVAPGKTASISCGGDNIGGKSVHWYQQKPGQAPVLVIYYDSDRPSGIPQRFSGSNSGNTATLTIHRVEAGDEADYYCQVLDRRSDHWLFGGGTKLTVL
notes: Fab expressed in mammalian cells for co-crystallisation; also called clone 62
